The values that follow come from publication PMC3900572 (The Journal of neuroscience : the official journal of the …, 2010).

This assay has as its target RIBEYE(B)-MBP (rat, UniProt Q9EQH5-2 564-988). Description: pull-down.

B1: GST-tagged full-length bovine GCAP2 (amino acids 1–204) (natural protein, UniProt P51177 1-204, looked up)
chain: MGQQFSWEEAEENGAVGAADAAQLQEWYKKFLEECPSGTLFMHEFKRFFKVPDNEEATQYVEAMFRAFDTNGDNTIDFLEYVAALNLVLRGTLEHKLKWTFKIYDKDRNGCIDRQELLDIVESIYKLKKACSVEVEAEQQGKLLTPEEVVDRIFLLVDENGDGQLSLNEFVEGARRDKWVMKMLQMDLNPSSWISQQRRKSAMF
Consider B1, for which binding was characterised by a dissociation constant (Kd) of 2720 nM.

What is called Kd is a measure of binding affinity in units of concentration.
